# In the Human Domainome abundance scans (Beltran et al. 2025):
# ± gives the uncertainty stated by the source.
# B1: DnaJ homolog subfamily C member 2, residues 451 to 503; numbered along this chain, Q99543 (parent)
# chain: SKNWSEDDLQLLIKAVNLFPAGTNSRWEVIANYMNIHSSSGVKRTAKDVIGKA
# Variants of: B1
# Test: abundance fitness (aPCA) (normalised: wild type 0, dead -1); higher = more abundant; growth selection in yeast, the domain comes from the species named
# Conditions: Homo sapiens
row,Variant,abundance fitness
1,SKNWSEDDLQLLIKAVNLFPAGTNSRWEVIANYMNIHSSSGVKRTAKDVVGKA,0.03 ± 0.066
2,SKNWSEDDLQLLIKAVNLFPAGTNSRWEVIANYMNIHSSSGVKRTAKDVDGKA,-0.224 ± 0.096
3,SKNWSEDDLQLLIKAVNLFPAGTNSRWEVIANYMNIHSSSGVKRTAKDVWGKA,-0.085 ± 0.078
4,SKNWSEDDLQLLIKAVNLFPAGTNSRWEVIANYMNIHSSSGVKRTAKDVEGKA,0.095 ± 0.095
5,SKNWSEDDLQLLIKAVNLFPAGTNSRWEVIANYMNIHSSSGVKRTAKDVTGKA,-0.267 ± 0.089
6,SKNWSEDDLQLLIKAVNLFPAGTNSRWEVIANYMNIHSSSGVKRTAKDVRGKA,0.096 ± 0.06
7,SKNWSEDDLQLLIKAVNLFPAGTNSRWEVIANYMNIHSSSGVKRTAKDVHGKA,-0.146 ± 0.1
8,SKNWSEDDLQLLIKAVNLFPAGTNSRWEVIANYMNIHSSSGVKRTAKDVYGKA,-0.006 ± 0.098
9,SKNWSEDDLQLLIKAVNLFPAGTNSRWEVIANYMNIHSSSGVKRTAKDVCGKA,-0.228 ± 0.11
10,SKNWSEDDLQLLIKAVNLFPAGTNSRWEVIANYMNIHSSSGVKRTAKDVGGKA,-0.113 ± 0.07
11,SKNWSEDDLQLLIKAVNLFPAGTNSRWEVIANYMNIHSSSGVKRTAKDVPGKA,-0.632 ± 0.16
12,SKNWSEDDLQLLIKAVNLFPAGTNSRWEVIANYMNIHSSSGVKRTAKDVNGKA,-0.229 ± 0.096
13,SKNWSEDDLQLLIKAVNLFPAGTNSRWEVIANYMNIHSSSGVKRTAKDVAGKA,0.085 ± 0.081
14,SKNWSEDDLQLLIKAVNLFPAGTNSRWEVIANYMNIHSSSGVKRTAKDVLGKA,-0.06 ± 0.061
15,SKNWSEDDLQLLIKAVNLFPAGTNSRWEVIANYMNIHSSSGVKRTAKDVISKA,-0.014 ± 0.057
16,SKNWSEDDLQLLIKAVNLFPAGTNSRWEVIANYMNIHSSSGVKRTAKDVIHKA,-0.206 ± 0.11
17,SKNWSEDDLQLLIKAVNLFPAGTNSRWEVIANYMNIHSSSGVKRTAKDVIDKA,0.063 ± 0.062
18,SKNWSEDDLQLLIKAVNLFPAGTNSRWEVIANYMNIHSSSGVKRTAKDVIWKA,-0.064 ± 0.099
19,SKNWSEDDLQLLIKAVNLFPAGTNSRWEVIANYMNIHSSSGVKRTAKDVIRKA,0 ± 0.06
20,SKNWSEDDLQLLIKAVNLFPAGTNSRWEVIANYMNIHSSSGVKRTAKDVIPKA,-0.194 ± 0.088
21,SKNWSEDDLQLLIKAVNLFPAGTNSRWEVIANYMNIHSSSGVKRTAKDVILKA,-0.159 ± 0.071
22,SKNWSEDDLQLLIKAVNLFPAGTNSRWEVIANYMNIHSSSGVKRTAKDVIFKA,-0.136 ± 0.094
23,SKNWSEDDLQLLIKAVNLFPAGTNSRWEVIANYMNIHSSSGVKRTAKDVIAKA,-0.019 ± 0.065
24,SKNWSEDDLQLLIKAVNLFPAGTNSRWEVIANYMNIHSSSGVKRTAKDVIQKA,-0.043 ± 0.11
25,SKNWSEDDLQLLIKAVNLFPAGTNSRWEVIANYMNIHSSSGVKRTAKDVIEKA,0.016 ± 0.084

row,Variant,abundance fitness
1,SKNWSEDDLQLLIKAVNLFPAGTNSRWEVIANYMNIHSSSGVKRTAKDVIKKA,0.12 ± 0.11
2,SKNWSEDDLQLLIKAVNLFPAGTNSRWEVIANYMNIHSSSGVKRTAKDVITKA,-0.065 ± 0.079
3,SKNWSEDDLQLLIKAVNLFPAGTNSRWEVIANYMNIHSSSGVKRTAKDVIMKA,-0.106 ± 0.084
4,SKNWSEDDLQLLIKAVNLFPAGTNSRWEVIANYMNIHSSSGVKRTAKDVICKA,-0.142 ± 0.091
5,SKNWSEDDLQLLIKAVNLFPAGTNSRWEVIANYMNIHSSSGVKRTAKDVIYKA,-0.099 ± 0.12
6,SKNWSEDDLQLLIKAVNLFPAGTNSRWEVIANYMNIHSSSGVKRTAKDVIIKA,-0.176 ± 0.1
7,SKNWSEDDLQLLIKAVNLFPAGTNSRWEVIANYMNIHSSSGVKRTAKDAIGKA,-0.219 ± 0.065
8,SKNWSEDDLQLLIKAVNLFPAGTNSRWEVIANYMNIHSSSGVKRTAKDRIGKA,-0.888 ± 0.085
9,SKNWSEDDLQLLIKAVNLFPAGTNSRWEVIANYMNIHSSSGVKRTAKDNIGKA,-0.938 ± 0.15
10,SKNWSEDDLQLLIKAVNLFPAGTNSRWEVIANYMNIHSSSGVKRTAKDSIGKA,-0.886 ± 0.094
11,SKNWSEDDLQLLIKAVNLFPAGTNSRWEVIANYMNIHSSSGVKRTAKDKIGKA,-1.02 ± 0.13
12,SKNWSEDDLQLLIKAVNLFPAGTNSRWEVIANYMNIHSSSGVKRTAKDFIGKA,-0.721 ± 0.18
13,SKNWSEDDLQLLIKAVNLFPAGTNSRWEVIANYMNIHSSSGVKRTAKDHIGKA,-0.883 ± 0.14
14,SKNWSEDDLQLLIKAVNLFPAGTNSRWEVIANYMNIHSSSGVKRTAKDIIGKA,-0.069 ± 0.07
15,SKNWSEDDLQLLIKAVNLFPAGTNSRWEVIANYMNIHSSSGVKRTAKDPIGKA,-1.18 ± 0.14
16,SKNWSEDDLQLLIKAVNLFPAGTNSRWEVIANYMNIHSSSGVKRTAKDDIGKA,-0.877 ± 0.15
17,SKNWSEDDLQLLIKAVNLFPAGTNSRWEVIANYMNIHSSSGVKRTAKDQIGKA,-0.744 ± 0.16
18,SKNWSEDDLQLLIKAVNLFPAGTNSRWEVIANYMNIHSSSGVKRTAKDEIGKA,-0.897 ± 0.11
19,SKNWSEDDLQLLIKAVNLFPAGTNSRWEVIANYMNIHSSSGVKRTAKDLIGKA,-0.258 ± 0.067
20,SKNWSEDDLQLLIKAVNLFPAGTNSRWEVIANYMNIHSSSGVKRTAKDCIGKA,-0.031 ± 0.1
21,SKNWSEDDLQLLIKAVNLFPAGTNSRWEVIANYMNIHSSSGVKRTAKDWIGKA,-0.758 ± 0.11
22,SKNWSEDDLQLLIKAVNLFPAGTNSRWEVIANYMNIHSSSGVKRTAKDVIGPA,-0.077 ± 0.094
23,SKNWSEDDLQLLIKAVNLFPAGTNSRWEVIANYMNIHSSSGVKRTAKDVIGMA,-0.247 ± 0.15
24,SKNWSEDDLQLLIKAVNLFPAGTNSRWEVIANYMNIHSSSGVKRTAKDVIGNA,-0.358 ± 0.12
25,SKNWSEDDLQLLIKAVNLFPAGTNSRWEVIANYMNIHSSSGVKRTAKDVIGAA,-0.01 ± 0.09
